In US20060177448A1, “Inhibiting HER2 shedding with matrix metalloprotease antagonists” (Genentech, Inc., priority 2005, published 2006):

Test system: SKBR-3 cells
Experiment: HER2 ECD ELISA of conditioned media (HER2 shedding), SKBR-3 cells
Type: cell-based, human
Conditions: 1 μg/ml
Method: BT 474, MCF-7, and SKBR-3 cells were maintained in high-glucose DMEM:Ham's F12 (50:50) supplemented with 10% heat-inactivated FBS and 2 mM L-Glutamine. […] Cell lines were maintained at 37° C. in a humidified incubator supplied with 5% CO2. BT 474 and SKBR-3 cells were transiently transfected with constructs as described by electroporation using kit V according to the manufacturer's instructions (AMAXA™).
Serum was diluted 1:50 using assay buffer (PBS/0.5% BSA, 0.05% TWEEN® 20/10 ppm PROCLIN® 300/0.2% BGG/0.25% CHAPS/0.15 M NaCl/5mM EDTA (pH 7.4) followed by additional 1:2 serial dilutions. Shed HER2 was captured using a goat anti-HER2 polyclonal antibody (Genentech) onto NUNC® Maxisorp plates and detected using a biotin-conjugated rabbit anti-HER2 polyclonal antibody (Genentech) followed by a AMDEX™-strepavidin-horseradish peroxidase antibody (Amersham Pharmacia Biotech) following a procedure described previously (Sias et al., J. Immunol. Meth. 109:219-27 (1990)). For cell culture experiments, cells were treated as indicated and conditioned media was collected and diluted in assay buffer serially 1:2. The concentration of shed HER2 in serum or in conditioned media was determined from a four-parameter fit of a standard curve using purified recombinant HER2 ECD protein (Genentech) as a standard.
The pSIREN shRNA construct(s) or vector alone were transiently transfected into SKBR-3 and BT 474 cells using AMAXA™ kit V following manufacturer's recommendations. After 48 hours, conditioned media was collected and assayed for shed HER2 by HER2 ELISA and the cells were lysed directly on the plate using 2×Sample buffer.

B1: Timp-3: naturally occurring peptides that regulate metalloprotease activity (protein, UniProt P35625 24-211, looked up)
Metalloproteinase inhibitor 3: CTCSPSHPQDAFCNSDIVIRAKVVGKKLVKEGPFGTLVYTIKQMKMYRGFTKMPHVQYIHTEASESLCGLKLEVNKYQYLLTGRVYDGKMYTGLCNFVERWDQLTLSQRKGLNYRYHLGCNCKIKSCYYLPCFVTSKNECLWTDMLSNFGYPGYQSKHYACIRQKGGYCSWYRGWAPPDKSIINATDP
- HER2 ECD levels in conditioned media: reduced HER2 ECD levels
